According to article PMC6882493 (Emerging Microbes & Infections, 2019):
Where two headings read alike, the source gives them in different places.

Tests used:
PNGM-1 [1] = conditions: read-out: PNGM-1^a; 50 mM MES pH 7.0, 30 °C, 100 μM ZnCl2, 100 μg/ml BSA; footnote: identical to data from authors' earlier reference 13; cited from earlier work
Target sequence in this assay (Z9H0G7B495 1-372 limits assumed): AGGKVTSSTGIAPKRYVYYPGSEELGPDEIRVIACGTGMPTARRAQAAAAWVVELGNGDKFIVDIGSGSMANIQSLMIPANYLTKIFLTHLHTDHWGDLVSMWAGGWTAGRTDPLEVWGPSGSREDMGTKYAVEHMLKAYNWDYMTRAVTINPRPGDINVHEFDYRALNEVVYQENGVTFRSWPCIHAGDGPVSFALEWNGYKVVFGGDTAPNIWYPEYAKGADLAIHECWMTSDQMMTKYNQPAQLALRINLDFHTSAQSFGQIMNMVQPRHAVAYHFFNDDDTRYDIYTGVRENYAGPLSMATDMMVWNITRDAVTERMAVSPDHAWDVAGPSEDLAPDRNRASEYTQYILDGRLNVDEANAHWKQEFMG

PNGM-1 [2] = test system: PNGM-1
Target sequence in this assay (Z9H0G7B495 1-372 H256A limits assumed): as the sequence (Z9H0G7B495 1-372 limits assumed) above, with H256A counted along it

[3] = test system: C[C@@H](O)[C@H]1C(=O)N2C(C(=O)O)=C(SCCN=CN)C[C@H]12; experiment: purified protein; conditions: 50 mM MES pH 7.0, 30 °C, 100 μM ZnCl2, 100 μg/ml BSA
[4] = test system: C[C@@H](O)[C@H]1C(=O)N2C(C(=O)O)=C(S[C@@H]3CN[C@H](C(=O)N(C)C)C3)[C@H](C)[C@H]12; experiment: purified protein; conditions: 50 mM MES pH 7.0, 30 °C, 100 μM ZnCl2, 100 μg/ml BSA
[5] = test system: C[C@@H](O)[C@H]1C(=O)N2C(C(=O)O)=C(S[C@@H]3CN[C@H](C(=O)Nc4cccc(C(=O)O)c4)C3)[C@H](C)[C@H]12; experiment: purified protein; conditions: 50 mM MES pH 7.0, 30 °C, 100 μM ZnCl2, 100 μg/ml BSA
PNGM-1 [6] = conditions: read-out: PNGM-1^a; 50 mM MES pH 7.0, 30 °C, 100 μM ZnCl2, 100 μg/ml BSA; footnote: identical to data from authors' earlier reference 13; cited from earlier work; remark: listed apart in the source
Target sequence in this assay (Z9H0G7B495 1-372 limits assumed): as the sequence (Z9H0G7B495 1-372 limits assumed) above

PNGM-1 [7] = test system: PNGM-1; remark: listed apart in the source
Target sequence in this assay (Z9H0G7B495 1-372 H256A limits assumed): as the sequence (Z9H0G7B495 1-372 limits assumed) above, with H256A counted along it

PNGM-1 [8] = conditions: read-out: PNGM-1^a; 50 mM MES pH 7.0, 30 °C, 100 μM ZnCl2, 100 μg/ml BSA; footnote: identical to data from authors' earlier reference 13; cited from earlier work; remark: listed apart in the source
Target sequence in this assay (Z9H0G7B495 1-372 limits assumed): as the sequence (Z9H0G7B495 1-372 limits assumed) above

PNGM-1 [9] = conditions: read-out: PNGM-1^a; 50 mM MES pH 7.0, 30 °C, 100 μM ZnCl2, 100 μg/ml BSA; footnote: identical to data from authors' earlier reference 13; cited from earlier work; remark: listed apart in the source
Target sequence in this assay (Z9H0G7B495 1-372 limits assumed): as above

PNGM-1 [10] = conditions: read-out: PNGM-1^a; 50 mM MES pH 7.0, 30 °C, 100 μM ZnCl2, 100 μg/ml BSA; footnote: identical to data from authors' earlier reference 13; cited from earlier work; remark: listed apart in the source
Target sequence in this assay (Z9H0G7B495 1-372 limits assumed): as above

PNGM-1 [11] = test system: PNGM-1; remark: listed apart in the source
Target sequence in this assay (Z9H0G7B495 1-372 H256A limits assumed): as the sequence (Z9H0G7B495 1-372 limits assumed) above, with H256A counted along it

PNGM-1 [12] = conditions: read-out: PNGM-1^a; 50 mM MES pH 7.0, 30 °C, 100 μM ZnCl2, 100 μg/ml BSA; footnote: identical to data from authors' earlier reference 13; cited from earlier work; remark: listed apart in the source
Target sequence in this assay (Z9H0G7B495 1-372 limits assumed): as the sequence (Z9H0G7B495 1-372 limits assumed) above

CO/N=C(\C(=O)N[C@@H]1C(=O)N2C(C(=O)O)=C(COC(C)=O)CS[C@H]12)c1csc(N)n1 [cefotaxime]
Km (PNGM-1 [1]): 3.3 ± 0.1 µM
Km (PNGM-1 [2]): 3.1 ± 0.1 µM

GOB-18 (Elizabethkingia meningoseptica)
Km [3]: 4.8 ± 0.1 µM
kcat [3]: 6.188 ± 0.003 s⁻¹
kcat/Km [3]: 1.3e+06 ± 200000 M⁻¹ s⁻¹
Km [4]: 5.7 ± 0.1 µM
kcat [4]: 8.568 ± 0.001 s⁻¹
kcat/Km [4]: 1.5e+06 ± 100000 M⁻¹ s⁻¹
Km [5]: 6.3 ± 0.1 µM
kcat [5]: 6.882 ± 0.002 s⁻¹
kcat/Km [5]: 1.1e+06 ± 200000 M⁻¹ s⁻¹

C[C@@H](O)[C@H]1C(=O)N2C(C(=O)O)=C(S[C@@H]3CN[C@H](C(=O)N(C)C)C3)[C@H](C)[C@H]12 [meropenem]
Km (PNGM-1 [6]): 1.9 ± 0.1 µM

CO[C@@]1(NC(=O)Cc2cccs2)C(=O)N2C(C(=O)O)=C(COC(N)=O)CS[C@@H]21 [cefoxitin]
Km (PNGM-1 [7]): 3.8 ± 0.1 µM
Km (PNGM-1 [8]): 4.3 ± 0.1 µM

AIM-1 (Pseudomonas aeruginosa)
Km [3]: 3.8 ± 0.1 µM
kcat [3]: 11.128 ± 0.0001 s⁻¹
kcat/Km [3]: 2.9e+06 ± 200000 M⁻¹ s⁻¹
Km [4]: 4.6 ± 0.1 µM
kcat [4]: 15.409 ± 0.0001 s⁻¹
Km [5]: 5.0 ± 0.1 µM
kcat [5]: 12.376 ± 0.0001 s⁻¹
kcat/Km [5]: 2.5e+06 ± 200000 M⁻¹ s⁻¹

C[C@@H](O)[C@H]1C(=O)N2C(C(=O)O)=C(SCCN=CN)C[C@H]12 [imipenem]
Km (PNGM-1 [9]): 2 ± 0.1 µM

FEZ-1 (Fluoribacter gormanii)
Km [3]: 3.5 ± 0.1 µM
kcat [3]: 0.763 ± 0.001 s⁻¹
kcat/Km [3]: 220000 ± 10000 M⁻¹ s⁻¹
Km [4]: 4.2 ± 0.1 µM
kcat [4]: 0.773 ± 0.001 s⁻¹
kcat/Km [4]: 180000 ± 10000 M⁻¹ s⁻¹
Km [5]: 4.6 ± 0.1 µM
kcat [5]: 0.667 ± 0.001 s⁻¹

C[C@@H](O)[C@H]1C(=O)N2C(C(=O)O)=C(S[C@@H]3CN[C@H](C(=O)Nc4cccc(C(=O)O)c4)C3)[C@H](C)[C@H]12 [ertapenem]
Km (PNGM-1 [10]): 1.9 ± 0.1 µM

CC(C)(O/N=C(\C(=O)N[C@@H]1C(=O)N2C(C(=O)[O-])=C(C[n+]3ccccc3)CS[C@H]12)c1csc(N)n1)C(=O)O [ceftazidime]
Km (PNGM-1 [11]): 15.4 ± 0.1 µM
Km (PNGM-1 [12]): 15.9 ± 0.2 µM
